Reference: article doi:10.1101/2020.07.19.211243
“And” between values parts separate entries of the source, which are not always exact repeats. Equal entries are not always repeated. Where two headings read alike, the source gives them in different places.

Assays:
Assay in all cases: SDS-PAGE
[1] = biological target: Daphnia pulex (water flea) sarcolamban peptide (Daphnia pulex)
[2] = biological target: Daphnia pulex (water flea) sarcolamban peptide (Daphnia pulex); remark: listed apart in the source
[3] = biological target: Triops cancriformis (tadpole shrimp) sarcolamban peptide (Triops cancriformis)

stoichiometry N [1] | stoichiometry N [2] | stoichiometry N [3] | Substance
2 | 3 and 4 and 5 |  | Daphnia pulex (water flea) sarcolamban peptide
 |  | 2 | Triops cancriformis (tadpole shrimp) sarcolamban peptide
